Experiments:
[1] = target: T1, Human MerTK on hMerTK-expressing cells (human, UniProt Q12866 21-999); assay: binding to hMerTK-expressing cells
T1 sequence: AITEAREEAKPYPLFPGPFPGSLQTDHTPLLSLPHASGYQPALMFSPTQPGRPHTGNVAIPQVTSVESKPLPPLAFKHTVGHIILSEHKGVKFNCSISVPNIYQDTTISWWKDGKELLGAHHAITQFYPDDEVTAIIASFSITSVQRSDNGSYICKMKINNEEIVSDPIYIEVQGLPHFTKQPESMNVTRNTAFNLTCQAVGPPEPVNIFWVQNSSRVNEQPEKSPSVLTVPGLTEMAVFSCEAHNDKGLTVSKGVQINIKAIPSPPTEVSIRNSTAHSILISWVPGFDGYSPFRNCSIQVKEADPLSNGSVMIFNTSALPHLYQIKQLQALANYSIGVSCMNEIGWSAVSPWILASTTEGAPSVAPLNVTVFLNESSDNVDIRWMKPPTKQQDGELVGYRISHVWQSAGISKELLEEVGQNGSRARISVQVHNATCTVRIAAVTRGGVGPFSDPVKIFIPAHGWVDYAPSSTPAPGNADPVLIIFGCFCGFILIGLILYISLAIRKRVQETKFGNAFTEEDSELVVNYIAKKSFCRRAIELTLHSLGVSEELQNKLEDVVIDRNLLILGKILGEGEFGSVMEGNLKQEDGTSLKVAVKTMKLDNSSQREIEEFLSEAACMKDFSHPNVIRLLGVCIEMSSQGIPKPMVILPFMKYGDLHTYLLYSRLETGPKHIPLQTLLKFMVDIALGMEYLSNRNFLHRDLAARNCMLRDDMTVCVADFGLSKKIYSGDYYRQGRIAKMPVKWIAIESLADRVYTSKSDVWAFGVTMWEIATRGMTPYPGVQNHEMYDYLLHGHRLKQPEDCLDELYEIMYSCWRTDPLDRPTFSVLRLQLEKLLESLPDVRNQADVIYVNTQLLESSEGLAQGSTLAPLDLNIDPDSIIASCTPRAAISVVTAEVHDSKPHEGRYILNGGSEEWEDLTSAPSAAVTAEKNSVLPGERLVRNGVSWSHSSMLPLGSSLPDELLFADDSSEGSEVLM

[2] = target: T2, Mouse MerTK on mMerTK-expressing cells (mouse, UniProt Q60805 19-994); assay: cell-based or functional assay
T2 sequence: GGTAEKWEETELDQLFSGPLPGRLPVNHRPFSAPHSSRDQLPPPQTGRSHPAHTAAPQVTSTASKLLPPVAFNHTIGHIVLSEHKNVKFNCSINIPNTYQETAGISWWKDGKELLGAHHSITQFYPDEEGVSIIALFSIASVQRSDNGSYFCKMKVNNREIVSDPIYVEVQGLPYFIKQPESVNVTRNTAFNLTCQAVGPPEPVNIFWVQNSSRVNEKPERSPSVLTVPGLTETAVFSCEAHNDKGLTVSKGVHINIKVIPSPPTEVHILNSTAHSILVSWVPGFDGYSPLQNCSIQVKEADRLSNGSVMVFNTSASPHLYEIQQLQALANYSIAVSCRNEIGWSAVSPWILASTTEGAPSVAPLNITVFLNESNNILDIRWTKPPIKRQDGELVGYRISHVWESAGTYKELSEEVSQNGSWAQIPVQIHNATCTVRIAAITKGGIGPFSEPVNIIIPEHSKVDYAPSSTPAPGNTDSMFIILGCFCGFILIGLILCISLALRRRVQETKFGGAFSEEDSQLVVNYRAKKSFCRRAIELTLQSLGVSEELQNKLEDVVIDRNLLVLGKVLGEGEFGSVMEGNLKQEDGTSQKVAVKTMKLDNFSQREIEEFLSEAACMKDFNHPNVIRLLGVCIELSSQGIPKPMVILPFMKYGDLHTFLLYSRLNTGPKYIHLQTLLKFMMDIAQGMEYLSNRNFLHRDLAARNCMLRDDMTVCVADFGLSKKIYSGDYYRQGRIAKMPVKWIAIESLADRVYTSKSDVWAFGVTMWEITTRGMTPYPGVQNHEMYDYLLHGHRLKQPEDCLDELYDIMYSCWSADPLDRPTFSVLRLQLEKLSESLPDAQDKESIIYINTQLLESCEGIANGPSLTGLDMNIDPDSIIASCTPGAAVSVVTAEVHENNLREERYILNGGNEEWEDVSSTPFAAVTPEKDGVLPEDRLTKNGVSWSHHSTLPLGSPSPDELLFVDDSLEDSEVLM

[3] = target: T1, Human MerTK on hMerTK-expressing cells; assay: cell-based or functional assay
[4] = target: T3, Recombinant soluble extracellular domain of human MerTK (human, UniProt Q12866 21-505); assay: SPR, soluble MerTK ECD; format for mouse mAbs not detailed
T3 construct: SPR analyte; also called hMerTK
T3 sequence: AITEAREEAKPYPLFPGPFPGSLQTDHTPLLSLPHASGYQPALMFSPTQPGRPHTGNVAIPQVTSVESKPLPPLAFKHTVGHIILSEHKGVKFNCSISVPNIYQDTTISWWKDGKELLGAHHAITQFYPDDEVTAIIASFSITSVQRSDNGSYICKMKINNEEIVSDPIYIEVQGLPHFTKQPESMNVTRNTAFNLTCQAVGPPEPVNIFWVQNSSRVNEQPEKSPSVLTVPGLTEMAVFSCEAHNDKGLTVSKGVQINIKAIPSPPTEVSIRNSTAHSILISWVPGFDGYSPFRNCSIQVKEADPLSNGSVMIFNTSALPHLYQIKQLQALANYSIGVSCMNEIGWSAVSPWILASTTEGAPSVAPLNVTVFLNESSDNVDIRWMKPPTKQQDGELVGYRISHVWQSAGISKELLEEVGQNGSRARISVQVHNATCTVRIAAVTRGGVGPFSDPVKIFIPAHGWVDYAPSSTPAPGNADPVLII

[5] = target: T4, Recombinant soluble extracellular domain of cynomolgus monkey MerTK (cynomolgus monkey, UniProt Q12866 21-505 (human entry)); assay: as above
T4 construct: SPR analyte; also called cMerTK; Cynomolgus MerTK
T4 chain: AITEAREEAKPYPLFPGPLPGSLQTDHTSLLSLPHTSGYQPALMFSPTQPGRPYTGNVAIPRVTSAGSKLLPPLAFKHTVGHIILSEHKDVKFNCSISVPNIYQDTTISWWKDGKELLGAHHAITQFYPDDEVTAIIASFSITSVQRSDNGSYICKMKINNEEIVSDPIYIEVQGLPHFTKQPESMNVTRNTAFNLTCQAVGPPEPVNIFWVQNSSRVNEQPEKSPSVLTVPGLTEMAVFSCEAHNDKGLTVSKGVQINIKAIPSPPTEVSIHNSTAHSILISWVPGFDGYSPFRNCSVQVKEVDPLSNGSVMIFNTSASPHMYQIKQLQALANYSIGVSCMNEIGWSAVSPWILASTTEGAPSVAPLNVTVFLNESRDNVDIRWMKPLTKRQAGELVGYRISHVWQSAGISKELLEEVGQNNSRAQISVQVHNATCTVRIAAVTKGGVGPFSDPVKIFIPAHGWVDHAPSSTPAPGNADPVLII

[6] = target: T5, Recombinant soluble extracellular domain of mouse MerTK (mouse, UniProt Q60805 19-497); assay: as above
T5 construct: SPR analyte; also called mMerTK
T5 sequence: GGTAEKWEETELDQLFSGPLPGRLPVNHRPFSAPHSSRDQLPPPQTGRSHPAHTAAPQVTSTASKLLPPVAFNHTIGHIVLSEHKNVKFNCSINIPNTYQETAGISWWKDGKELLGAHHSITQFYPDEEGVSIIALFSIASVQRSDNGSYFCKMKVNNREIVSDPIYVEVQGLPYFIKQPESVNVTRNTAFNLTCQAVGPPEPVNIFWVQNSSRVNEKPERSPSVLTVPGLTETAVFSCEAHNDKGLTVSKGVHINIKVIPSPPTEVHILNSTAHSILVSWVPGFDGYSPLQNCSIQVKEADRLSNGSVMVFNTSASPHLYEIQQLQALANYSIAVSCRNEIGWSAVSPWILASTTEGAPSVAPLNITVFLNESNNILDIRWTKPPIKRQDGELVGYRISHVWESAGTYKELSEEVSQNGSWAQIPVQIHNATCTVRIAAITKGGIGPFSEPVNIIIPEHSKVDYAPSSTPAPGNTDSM

B1: MoMAb 16B9 (antibody, V domains shown)
VH: EVQLQQSRPDLVKPGASVKMSCKASGYTFIDYNMHWVKQRHGKSLEWIGYIHPNNGGTSYNQKFKDKATLTMNKSSSTAYMELRSLTSEDSAVYYCSRSGIYYDYDSFFDYWGQGTTLTVSS
VL: DIQMTQSPASLYVSVGETVTITCRASENIYSHLAWYQQKLGKSPHLLVYAATNLADGVPSRFSGSGSGTQYSLKINSLQSEDFGSYYCQHFWGSPWTFGGGTKLEIK
notes: Mouse mAb
[1]
  binding result: no binding
[2]
  Signaling Assay, mMerTK with Gas6, pSTAT1 IC50 (nM): 0.9 nM
[3]
  Signaling Assay, hMerTK with Gas6, pSTAT1 IC50 (nM): > 100 nM
  Signaling Assay, hMerTK without Gas6, pSTAT1 IC50 (nM): > 100 nM
[4]
  Kd: > 250 nM
[5]
  Kd: > 100 nM
[6]
  Kd: 35.1 nM
  koff: 0.00256 s⁻¹
  kon: 72700 M⁻¹ s⁻¹
  t1/2: 4.5 min
